Test results as given in patent US20260243776A1 (LEIBNIZ INSTITUT F R ALTERNSFORSCHUNG FRITZ LIPMANN …, published 2026).

How the values were obtained:
[1] = target: BRD2 (human, UniProt P25440 1-801, limits assumed); assay: proximity biotinylation in HEK293T cells treated with the PROTAC KB02-JQ1 (10 uM), with or without MG132; recruitment induced by the small molecule
[2] = target: BRD3 (human, UniProt Q15059 2-726, limits assumed); assay: as above
Chain of BRD3 (Q15059 2-726 limits assumed): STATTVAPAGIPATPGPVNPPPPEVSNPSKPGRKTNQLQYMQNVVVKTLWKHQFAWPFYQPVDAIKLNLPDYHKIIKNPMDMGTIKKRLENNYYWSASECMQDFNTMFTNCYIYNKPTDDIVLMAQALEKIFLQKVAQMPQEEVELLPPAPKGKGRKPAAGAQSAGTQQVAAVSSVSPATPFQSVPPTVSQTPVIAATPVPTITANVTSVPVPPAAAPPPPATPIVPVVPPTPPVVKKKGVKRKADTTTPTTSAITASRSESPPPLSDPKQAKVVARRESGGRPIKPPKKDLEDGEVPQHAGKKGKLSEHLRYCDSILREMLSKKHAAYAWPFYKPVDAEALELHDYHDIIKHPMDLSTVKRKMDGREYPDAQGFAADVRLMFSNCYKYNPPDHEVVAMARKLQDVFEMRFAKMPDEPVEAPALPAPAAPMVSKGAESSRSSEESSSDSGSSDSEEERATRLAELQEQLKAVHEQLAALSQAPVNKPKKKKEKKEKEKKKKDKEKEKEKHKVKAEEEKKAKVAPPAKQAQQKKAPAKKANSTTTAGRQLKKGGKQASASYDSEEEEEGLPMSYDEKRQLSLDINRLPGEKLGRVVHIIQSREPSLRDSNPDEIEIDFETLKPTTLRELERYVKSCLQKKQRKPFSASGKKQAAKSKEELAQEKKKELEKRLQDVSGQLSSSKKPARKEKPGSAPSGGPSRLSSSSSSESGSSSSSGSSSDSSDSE

Chain of BRD2 (P25440 whole entry): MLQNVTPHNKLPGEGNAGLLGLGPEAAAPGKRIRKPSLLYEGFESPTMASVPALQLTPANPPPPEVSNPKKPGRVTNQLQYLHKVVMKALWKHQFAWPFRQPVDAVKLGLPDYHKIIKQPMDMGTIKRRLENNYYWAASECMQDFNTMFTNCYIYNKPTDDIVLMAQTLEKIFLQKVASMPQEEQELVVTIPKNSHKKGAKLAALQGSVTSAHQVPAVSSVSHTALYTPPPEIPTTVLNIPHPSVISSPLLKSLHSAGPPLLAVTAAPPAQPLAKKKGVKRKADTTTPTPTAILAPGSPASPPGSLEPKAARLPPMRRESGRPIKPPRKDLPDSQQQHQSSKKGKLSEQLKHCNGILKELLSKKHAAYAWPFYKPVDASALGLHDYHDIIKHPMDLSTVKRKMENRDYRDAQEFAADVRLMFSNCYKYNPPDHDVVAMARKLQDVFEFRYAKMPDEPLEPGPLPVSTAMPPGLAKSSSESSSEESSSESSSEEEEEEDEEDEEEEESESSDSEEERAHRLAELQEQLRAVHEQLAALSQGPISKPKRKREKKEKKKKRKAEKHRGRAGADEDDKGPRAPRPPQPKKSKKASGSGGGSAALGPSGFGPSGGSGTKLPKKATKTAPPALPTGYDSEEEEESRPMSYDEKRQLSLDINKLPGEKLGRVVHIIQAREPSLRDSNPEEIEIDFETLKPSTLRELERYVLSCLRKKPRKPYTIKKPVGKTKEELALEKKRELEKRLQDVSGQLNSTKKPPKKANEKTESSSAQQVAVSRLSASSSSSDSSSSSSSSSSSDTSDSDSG

B1: PSMA4-miniTurbo-FLAG (other)
chain: MSRRYDSRTTIFSPEGRLYQVEYAMEAIGHAGTCLGILANDGVLLAAERRNIHKLLDEVFFSEKIYKLNEDMACSVAGITSDANVLTNELRLIAQRYLLQYQEPIPCEQLVTALCDIKQAYTQFGGKRPFGVSLLYIGWDKHYGFQLYQSDPSGNYGGWKATCIGNNSAAAVSMLKQDYKEGEMTLKSALALAIKVLNKTMDVSKLSAEKVEIATLTRENGKTVIRVLKQKEVEQLIKKHEEEEAKAEREKKEKEQKEKDKYPTFLYKVVDSRMASIPLLNAKQILGQLDGGSVAVLPVVDSTNQYLLDRIGELKSGDACIAEYQQAGRGSRGRKWFSPFGANLYLSMFWRLKRGPAAIGLGPVIGIVMAEALRKLGADKVRVKWPNDLYLQDRKLAGILVELAGITGDAAQIVIGAGINVAMRRVEESVVNQGWITLQEAGINLDRNTLAAMLIRELRAALELFEQEGLAPYLSRWEKLDNFINRPVKLIIGDKEIFGISRGIDKQGALLLEQDGVIKPWMGGEISLRSAEKLQDDYKDDDDK
notes: also called A4-mT; PSMA4_miniTurboID
B1: binds [1]; binds [2].
